The values below come from US9993566B2, “SEZ6 modulators and methods of use” (AbbVie Stemcentrx LLC, priority 2013, dated 2018).

For experiment [1], the target named is T1, SEZ6 ECD (Homo sapiens, UniProt Q53EL9).
T1 construct: SEZ6 extracellular domain (amino acids 1-904); expressed in transfected cells; host or cells: yeast (surface display, Cochran et al. protocol)
As to the kind of experiment: Fine epitope mapping (phage display peptide library or yeast-displayed SEZ6 ECD mutants). Format: binding. Conditions: epitope conformational (discontinuous) or linear. As to the method:
Epitopes were classified either as conformational (i.e. discontinuous) or linear. Yeast displaying the SEZ6 ECD construct was heat treated for 30 minutes at 80° C. in order to denature the antigen, washed twice in ice-cold PBSA and then subjected to the same staining protocol and flow cytometry analysis as described above. Antibodies that bound to both the denatured and native yeast were classified as binding to a linear epitope, whereas antibodies that bound native yeast but not denatured yeast were classified as conformationally specific.
Fine epitope mapping was further performed on selected antibodies to determine the specific amino acids to which they bound. Antibodies that bound to a linear epitope were mapped using the Ph.D.-12 phage display peptide library kit (New England Biolabs E8110S). The antibody selected for epitope mapping was coated onto a Nunc MaxiSorp tube (Nunc) at 50 μg/mL in 3 mL 0.1 M sodium bicarbonate solution, pH 8 and incubated overnight. The tube was blocked with 3% BSA solution in bicarbonate solution. Then, 10^11 input phage in PBS+0.1% Tween-20 was allowed to bind, followed by ten consecutive washes with 0.1% Tween-20 to wash away non-binding phage. Remaining phage were eluted with 1 mL 0.2 M glycine for 10 minutes at room temperature with gentle agitation, followed by neutralization with 150 μL 1 M Tris-HCl pH 9. Eluted phage were amplified and panned again with 10^11 input phage, using 0.5% Tween-20 during the wash steps to increase selection stringency. DNA from 24 plaques of the eluted phage from the second round was isolated using the Qiaprep M13 Spin kit (Qiagen) and sequenced. Binding of clonal phage was confirmed using an ELISA assay, where the mapped antibody or a control antibody was coated onto an ELISA plate, blocked, and exposed to each clone phage. Phage binding was detected using horseradish peroxidase conjugated anti-M13 antibody (GE Healthcare), and the 1-Step Turbo TMB ELISA solution (Pierce). Phage peptide sequences from specifically binding phage were aligned using Vector NTI (Life Technologies) against the antigen ECD peptide sequence to determine the epitope of binding.
Selected antibodies that bound to a discontinuous epitope were mapped using the technique described by Chao et al. (2007). Libraries of SEZ6 ECD mutants were generated with error prone PCR using nucleotide analogues 8-oxo-2′deoxyguanosine-5′-triphosphate and 2′-deoxy-p-nucleoside-5′triphosphate (both from TriLink Bio) for a target mutagenesis rate of one amino acid mutation per clone. These were transformed into a yeast display format. Using the technique described above for domain-level mapping, the library was stained for c-myc and antibody binding at 50 nM. […] These clones were re-grown, and subjected to another round of FACS sorting for loss of binding to the target antibody. Using the Zymoprep Yeast Plasmid Miniprep kit (Zymo Research), individual ECD clones were isolated and sequenced. Where necessary, mutations were reformatted as single-mutant ECD clones using the Quikchange site directed mutagenesis kit (Agilent).
Individual ECD clones were next screened to determine whether loss of binding was due to a mutation in the epitope, or a mutation that caused misfolding. Mutations that involved cysteine, proline, and stop codons were automatically discarded due to the high likelihood of a misfolding mutation. Remaining ECD clones were then screened for binding to a non-competing, conformationally specific antibody. ECD clones that lost binding to non-competing, conformationally specific antibodies were concluded to contain misfolding mutations, whereas ECD clones that retained equivalent binding as wild type SEZ6 ECD were concluded to be properly folded. Mutations in the ECD clones in the latter group were concluded to be in the epitope. […]

Experiment [2] concerns rat SEZ6. As to the kind of experiment: Flow cytometry cross reactivity, RIN-m5F cells. The format is binding. Conditions: 5 μg/mL antibody. In short, it runs like this:
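Neuro2a (mouse SEZ6), RIN-m5F (rat SEZ6) or yeast displaying cynomolgus SEZ6 extracellular domain, 1×10^5 cells, incubated 30 min with 5 μg/mL antibody in PBS/2% FCS. Detection by DyLight 649 anti-mouse IgG Fc secondary (1:200, 15 min), then flow cytometry, with DAPI for mammalian cells only.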

Experiment [3] deals with cynomolgus SEZ6. As to the kind of experiment: Flow cytometry cross reactivity, yeast displaying extracellular domain of cynomolgus SEZ6. Format: binding. The note with it: 5 μg/mL antibody. As to the method: (§1) In this regard flow cytometry was performed using a FACSCanto II as per the manufacturer's instructions in order to confirm that selected SC17 antibody modulators can immunospecifically associate with human SEZ6 and to determine whether the same modulators cross-react with cynomolgus, rat and/or murine SEZ6 in addition to SEZ6L and SEZ6L2. More particularly modulators were tested for cross reactivity to murine SEZ6 and rat SEZ6 by flow cytometry against Neuro2a (ATCC Cat # CCL131), and RIN-m5F (ATCC cat # CRL-11605) cell lines which express mouse SEZ6 and rat SEZ6, respectively. For examining cross reactivity to cynomolgus SEZ6, yeast displaying the extracellular domain of cynomolgus SEZ6 (Boder et al, 1997) were used for flow cytometry analysis.
(§2) Briefly 1×10^5 cells per well of Neuro2a, RIN-5mF, or yeast displaying cynomolgus SEZ6 cells were incubated for 30 minutes with 50 μL PBS (2% FCS) buffer with 5 μg/mL antibody. Cells were washed twice with the same buffer and then incubated with 50 μL per sample DyLight 649 labeled goat-anti-mouse IgG, Fc fragment specific secondary diluted 1:200 in PBS buffer. After incubating for 15 minutes cells were washed twice with the PBS buffer and re-suspended in the same with DAPI for flow cytometry analysis of Neuro2a and Rin-m5F or buffer without DAPI for flow cytometric analysis of yeast cells with cSEZ6.
In general terms: In flow cytometry, cells or beads pass a laser one at a time.

Experiment [4] has as its system LU50 LCNEC tumor. As to the kind of experiment: NTX tumor growth in immunodeficient mice, murine ADCs. Conditions: three injections of 1 mg/kg intraperitoneally over seven days, NOD/SCID mice. Format: in vivo, human. As for the experimental part: Patient-derived NTX tumors were grown subcutaneously in the flanks of female NOD/SCID recipient mice using art-recognized techniques. Tumor volumes and mouse weights were monitored twice per week. When tumor volumes reached 150-250 mm^3, mice were randomly assigned to treatment groups and injected intraperitoneally with SC17-ADC1 or a control MsIgG1-ADC1. Mice were given three injections of 1 mg/kg (indicated by the vertical lines in FIG. 17B) over a period of seven days. Following treatment, tumor volumes and mouse weights were monitored until tumors exceeded 800 mm^3 or mice became sick.

The target in experiment [5] is T2, mouse SEZ6 (Mus musculus, UniProt Q7TSK2).
T2 construct: Neuro2a (ATCC Cat # CCL131), and RIN-m5F (ATCC cat # CRL-11605) cell lines which express mouse SEZ6 and rat SEZ6; host or cells: Neuro2a
T2 sequence (Q7TSK2 20-991): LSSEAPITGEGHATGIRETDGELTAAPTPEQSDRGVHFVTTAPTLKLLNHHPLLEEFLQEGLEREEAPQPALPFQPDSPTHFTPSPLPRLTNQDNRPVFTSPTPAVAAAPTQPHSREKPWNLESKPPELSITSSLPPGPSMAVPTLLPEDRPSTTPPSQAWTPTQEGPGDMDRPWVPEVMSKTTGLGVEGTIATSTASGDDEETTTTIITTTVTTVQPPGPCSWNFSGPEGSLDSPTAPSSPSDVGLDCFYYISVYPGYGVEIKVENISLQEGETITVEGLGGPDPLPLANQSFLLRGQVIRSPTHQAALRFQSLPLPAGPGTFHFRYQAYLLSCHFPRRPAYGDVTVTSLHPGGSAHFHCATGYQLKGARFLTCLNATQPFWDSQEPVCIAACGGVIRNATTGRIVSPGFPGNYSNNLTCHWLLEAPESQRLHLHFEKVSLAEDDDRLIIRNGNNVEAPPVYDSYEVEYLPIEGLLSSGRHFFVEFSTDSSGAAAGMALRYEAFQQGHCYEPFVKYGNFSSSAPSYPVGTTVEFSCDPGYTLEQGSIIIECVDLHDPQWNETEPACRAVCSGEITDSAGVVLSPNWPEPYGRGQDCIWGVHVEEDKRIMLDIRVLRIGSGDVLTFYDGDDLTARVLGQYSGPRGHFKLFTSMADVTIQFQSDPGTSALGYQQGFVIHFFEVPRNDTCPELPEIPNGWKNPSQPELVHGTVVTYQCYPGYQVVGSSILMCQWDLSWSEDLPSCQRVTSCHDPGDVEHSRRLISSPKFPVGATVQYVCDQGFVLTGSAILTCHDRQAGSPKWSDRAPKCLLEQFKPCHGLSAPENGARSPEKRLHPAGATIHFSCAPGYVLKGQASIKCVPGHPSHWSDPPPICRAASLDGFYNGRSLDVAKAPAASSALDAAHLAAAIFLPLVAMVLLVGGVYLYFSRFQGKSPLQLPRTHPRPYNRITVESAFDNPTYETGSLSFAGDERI
As to the kind of experiment: Flow cytometry cross reactivity, Neuro2a cells. The format is binding. Conditions: 5 μg/mL antibody. As for the experimental part: as §1, §2

Experiment [6] has as its system LU100, a SCLC tumor. As to the kind of experiment: Fab-saporin cytotoxicity in NTX tumor cells. Format: cell-based, human. The note with it: 50 and 500 pM antibody with Fab-saporin, seven days. As for the experimental part: (§3) To corroborate the results of Example 14 and determine whether SEZ6 modulators can mediate toxin internalization and cell killing of human tumor cells (as opposed to engineered cells), mouse lineage-depleted NTX cells were plated and subsequently exposed to anti-SEZ6 antibodies and Fab-saporin.
(§4) NTX tumors were dissociated into a single cell suspension and plated on Primaria™ plates (BD Biosciences) in growth factor supplemented serum free media as is known in the art. After culturing the cells for one day at 37° C./5% CO2/5% O2, they were treated with a control (IgG1, IgG2a or IgG2b) or a murine SEZ6 modulator and Fab-saporin as described in Example 14. After seven days, the modulator-mediated saporin cytotoxicity was assessed by quantifying the remaining number of live cells using Cell Titer Glo.

Experiment [7] concerns LU37, a NSCLC tumor. As to the kind of experiment: Fab-saporin cytotoxicity in NTX tumor cells. The note with it: antibody with Fab-saporin, seven days. Format: cell-based, human. As for the experimental part: as §3, §4
Experiment [8] deals with LU80, a SCLC tumor. As to the kind of experiment: Fab-saporin cytotoxicity in NTX tumor cells. Conditions: antibody with Fab-saporin, seven days. The format is cell-based, human. As for the experimental part: as §3, §4
Experiment [9] addresses T3, SEZ6L2 (Homo sapiens, UniProt Q6UXD5, INS830AYEELLDNRKLEV).
T3 construct: IgK signal peptide (N, cleaved yes); made in house; host or cells: HEK-293T or CHO-S
As to the kind of experiment: ELISA cross reactivity to family member SEZ6L2. The format is binding. Also noted: key to binds SEZ6 family member SEZ6L2 (dagger): *: antibodies that bind SEZ6 family members SEZ6L and SEZ6L2 are designated with an asterisk and/or a dagger, respectively; †: antibodies that bind SEZ6 family members SEZ6L and SEZ6L2 are designated with an asterisk and/or a dagger, respectively. As for the experimental part:
To determine cross reactivity to family member proteins, SEZ6L and SEZ6L2, an ELISA-based assay was used. Plates were coated with SEZ6, SEZ6L, or SEZ6L2 proteins at 0.2 μg/mL in PBS overnight. After washing with PBS containing 0.05% (v/v) Tween 20 (PBST), the wells were blocked with 2% (w/v) BSA in PBS (PBSA), 100 μL/well for 1 hour at room temperature. Antibody was then added at 1 μg/mL in 100 μL PBSA for 1 hour at room temperature. After washing with PBST, 100 μL/well HRP-labeled goat anti-mouse IgG diluted 1:2,000 in PBSA for 1 hour at room temperature. The plates were washed and 100 μL/well of the TMB substrate solution (Thermo Scientific 34028) was added for 15 minutes at room temperature. After developing, an equal volume of 2M H2SO4 was added to stop substrate development and analyzed by spectrophotometer at OD 450. […] As discussed above, such pan-SEZ6 antibodies are compatible with the teachings herein and may be used in conjunction with the disclosed methods.

For experiment [10], the target named is T4, SEZ6 (Homo sapiens, UniProt Q53EL9).
T4 construct: produce a cDNA fragment encoding the mature human SEZ6 protein; IgK signal peptide (N); T2A peptide (residue left after ribosomal skipping; GFP is a separate protein) (C); expressed in transfected cells; host or cells: HEK-293T (lentiviral transduction, pCDH-EF1-MCS-T2A-GFP)
As to the kind of experiment: Immunohistochemistry validation on FFPE cell pellets. The note with it: FFPE sections. The format is binding. As to the method: Immunohistochemistry (IHC) was performed on PDX tumors to confirm that SEZ6 is expressed on the surface of certain PDX tumors; and in order to determine the location of the SEZ6 protein in the tumor architecture. IHC was performed on formalin fixed paraffin embedded (FFPE) tissue sections using an indirect detection method which included murine monoclonal primary antibody against SEZ6 (SC17.140), mouse specific biotin conjugated secondary antibodies, avidin/biotin complex coupled with horse radish peroxidase, and DAB detection (Nakene P K 1968; 16:557-60). […] Specificity was further confirmed by competing signal with a 5 molar excess of purified recombinant SEZ6 on HEK-293T cells overexpressing human SEZ6 and NTX tumors that were shown by IHC to express SEZ6 (data not shown).

rat SEZ6, sequence (as listed by the source): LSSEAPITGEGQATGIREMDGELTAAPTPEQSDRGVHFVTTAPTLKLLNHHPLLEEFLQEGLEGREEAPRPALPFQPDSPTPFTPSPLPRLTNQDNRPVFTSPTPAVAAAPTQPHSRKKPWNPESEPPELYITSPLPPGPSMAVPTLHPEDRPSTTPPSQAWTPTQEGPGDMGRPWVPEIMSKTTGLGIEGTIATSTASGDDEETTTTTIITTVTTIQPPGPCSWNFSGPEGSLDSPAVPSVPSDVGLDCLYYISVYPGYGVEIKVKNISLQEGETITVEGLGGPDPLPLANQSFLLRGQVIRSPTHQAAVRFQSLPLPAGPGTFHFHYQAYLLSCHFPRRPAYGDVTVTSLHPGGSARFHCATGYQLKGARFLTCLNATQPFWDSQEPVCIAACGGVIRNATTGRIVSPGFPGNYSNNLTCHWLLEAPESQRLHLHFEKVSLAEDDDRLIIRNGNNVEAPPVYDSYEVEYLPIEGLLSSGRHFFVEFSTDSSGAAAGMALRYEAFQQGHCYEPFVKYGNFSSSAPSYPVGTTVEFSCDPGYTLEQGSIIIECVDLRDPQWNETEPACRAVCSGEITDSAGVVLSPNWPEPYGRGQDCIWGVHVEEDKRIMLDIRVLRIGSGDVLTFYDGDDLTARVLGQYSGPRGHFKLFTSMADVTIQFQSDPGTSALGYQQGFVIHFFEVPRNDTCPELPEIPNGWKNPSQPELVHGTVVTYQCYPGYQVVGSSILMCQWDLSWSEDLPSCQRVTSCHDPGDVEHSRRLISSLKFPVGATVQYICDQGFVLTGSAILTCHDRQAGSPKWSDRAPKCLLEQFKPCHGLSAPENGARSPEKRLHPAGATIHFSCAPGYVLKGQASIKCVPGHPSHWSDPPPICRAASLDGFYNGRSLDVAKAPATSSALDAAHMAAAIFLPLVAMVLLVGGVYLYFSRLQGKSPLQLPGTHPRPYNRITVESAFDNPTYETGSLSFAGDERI
T3 sequence (Q6UXD5 with tags, fused parts or gaps with the stated changes): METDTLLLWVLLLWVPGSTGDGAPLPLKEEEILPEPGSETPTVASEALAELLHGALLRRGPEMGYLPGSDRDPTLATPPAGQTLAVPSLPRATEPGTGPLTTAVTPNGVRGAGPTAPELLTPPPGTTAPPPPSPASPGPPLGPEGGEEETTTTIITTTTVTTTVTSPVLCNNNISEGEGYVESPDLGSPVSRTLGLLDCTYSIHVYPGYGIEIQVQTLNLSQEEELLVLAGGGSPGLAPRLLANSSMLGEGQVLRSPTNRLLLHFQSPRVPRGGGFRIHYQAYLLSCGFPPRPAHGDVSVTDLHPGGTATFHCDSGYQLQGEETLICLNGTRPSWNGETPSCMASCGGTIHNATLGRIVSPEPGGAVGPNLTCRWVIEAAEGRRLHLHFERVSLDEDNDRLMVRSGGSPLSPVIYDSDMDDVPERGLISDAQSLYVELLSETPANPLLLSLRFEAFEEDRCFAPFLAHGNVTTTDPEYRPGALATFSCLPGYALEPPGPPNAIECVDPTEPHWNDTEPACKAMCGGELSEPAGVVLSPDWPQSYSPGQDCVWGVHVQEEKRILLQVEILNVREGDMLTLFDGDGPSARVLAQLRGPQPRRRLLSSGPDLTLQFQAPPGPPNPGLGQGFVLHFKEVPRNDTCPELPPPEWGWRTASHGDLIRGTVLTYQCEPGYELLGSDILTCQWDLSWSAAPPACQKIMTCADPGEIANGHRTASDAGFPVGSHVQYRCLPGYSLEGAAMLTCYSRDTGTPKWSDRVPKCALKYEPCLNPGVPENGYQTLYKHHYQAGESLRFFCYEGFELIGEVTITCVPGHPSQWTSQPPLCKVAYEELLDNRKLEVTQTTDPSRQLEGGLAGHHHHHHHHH

B1: SC17.46 (antibody, V domains shown)
VH: QVQLQQPGAELVKPGASMKLSCKASGYTFTSYWINWVKQRPGQGLEWIGNIFPDTTTTNYNEKFKSKATLTVDTSSSTAYMQLSSLTSDDSAVYYCAREYYDGTYDAMDYWGQGTSVTV
VL: SFVMTQTPKFLLVSAGDRVTITCKASQSVNNDVAWYQQKPGQSPKLLIYYASNRYTGVPDRFTGSGYGTDFTFTISTVQAEDLAVYFCQQDYSSPRTFGGGTKLEIK
modifications: Murine SC17.46 VH; Murine SC17.46 VL
For B1, the Discontinuous entry in experiment [1] is “Yes”. Besides, the “cross reactivity to rat SEZ6” value in experiment [2] is listed as “lack of cross reactivity”. In addition, the “cross reactivity to cynomolgus SEZ6” value in experiment [3] was “lack of cross reactivity”. Further, the “duration of tumor growth suppression, LU50” value in [4] amounted to 35 days.

B2: SC17.6: murine anti-SEZ6 antibody; SC17.6 is duplicate of SC17.16 (antibody, V domains shown)
VH: EVQLQQSGPELMKPGASVKMSCKASGYTFTDYNMYWVKQNQGKSLEWIGEINPNNGGTAYNQKFRGKATLTVDKSSSTAYMELRSLTSEDSAVYYCARYDKGFDYWGQGTTLTVSS
VL: DIQMTQSPASLSVSVGETVTITCRASANINSNLVWYQQKQGKSPQLLVYAATNLADGVPSRFSGSGSGTQYSLKINSLQSEDFGNYYCQHFWGTPRTFGGGTKLEIK
modifications: Murine SC17.16 VH; Murine SC17.16 VL
In the case of B2, the “cross reactivity to murine SEZ6” value in [5] is “cross reactive”. The “cross reactivity to rat SEZ6” value in [2] is listed as “cross reactive”. Moreover, the “number of tumor cells, LU100” value in experiment [6] was “reduction of tumor cells”. For the same molecule, the “number of tumor cells, LU37” value in experiment [7] is “reduction in the number of tumor cells”. The “number of tumor cells, LU80” value in experiment [8] is on record as “reduction in the number of tumor cells”. Besides, the “cross reactivity with SEZ6L2” value in experiment [9] (ELISA, antibody 1 μg/mL) is reported as “cross-reactive”. Besides, in experiment [9] (mark in Table 5), the “binds SEZ6 family member SEZ6L2 (dagger)” value is on record as “SC17.6^†, SC17.28^†, SC17.103, SC17.109, SC17.119,”.

B3: SC17.140: murine anti-SEZ6 antibody (antibody, V domains shown)
VH: EVQLQQSGPELMKPGASVKMSCKASGYTFTDYNMHWVKQNQGKSLEWIGEINPNTGGTGYNQKFKGKATLTVDKFSSTAFIELRSLTSEDSAIYYCTRGGYDHYWYFDVWGAGTTVTVSS
VL: QIVLTQSPAIMSASPGEKVTMTCSASSSVSYMHWYQQKSGTSPKRWIYDTSKLASGVPARFSGSGSGTSYSLTISSMEAEDAATYYCQQWSSTPPTFGSGTKLEIK
modifications: Murine SC17.140 VH; Murine SC17.140 VL
notes: murine anti-SEZ6 antibody
As to B3, the Discontinuous entry in experiment [1] is on record as “Yes”. Besides, the “IHC staining of HEK-293T cell pellets overexpressing SEZ6 compared to naïve HEK-293T cell pellets” value in [10] is recorded as “specific staining”.
